Assay in all cases: Crosslinking/co-immunoprecipitation/mass spectrometry (TMT quantitative proteomics) to identify irisin receptors
What all share (type): binding

Experiment [1] concerns the target T1, MLO-Y4 cell surface proteins (Mus musculus, UniProt P97360).
T1 construct: endogenous in cells; host or cells: MLO-Y4
T1 sequence (P97360 1-485): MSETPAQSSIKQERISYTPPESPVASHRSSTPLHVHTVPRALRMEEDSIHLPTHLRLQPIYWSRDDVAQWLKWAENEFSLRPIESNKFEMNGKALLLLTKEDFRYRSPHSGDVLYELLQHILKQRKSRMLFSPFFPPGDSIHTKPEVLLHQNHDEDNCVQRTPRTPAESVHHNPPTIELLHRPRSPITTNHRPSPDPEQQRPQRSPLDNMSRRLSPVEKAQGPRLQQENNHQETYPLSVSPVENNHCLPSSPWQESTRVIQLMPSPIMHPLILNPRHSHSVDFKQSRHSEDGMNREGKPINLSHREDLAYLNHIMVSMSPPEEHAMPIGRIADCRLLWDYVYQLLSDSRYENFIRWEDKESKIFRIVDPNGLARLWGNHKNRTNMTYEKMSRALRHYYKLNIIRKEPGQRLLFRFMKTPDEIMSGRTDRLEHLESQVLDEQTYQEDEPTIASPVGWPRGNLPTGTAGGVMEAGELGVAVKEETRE
As to conditions: co-precipitated protein Etv6 (ETV6_MOUSE). In a few lines: (§1)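 Relative protein abundance came from 6-plex TMT MS3 quantitation on an Orbitrap Fusion Lumos, after in-gel trypsin digestion of Coomassie-stained SDS-PAGE lanes. Input was a Ni-NTA pulldown (250 mM imidazole elution) of lysates from murine MLO-Y4 cells. These cells were treated on ice with His-tagged irisin or adipsin (10 nM, 20 min) in serum-free medium, then crosslinked with 1.5 mM DTSSP for 30 min.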

Experiment [2] concerns the target T2, MLO-Y4 cell surface proteins (Mus musculus, UniProt Q9Z2I9).
T2 construct: endogenous in cells; host or cells: MLO-Y4
T2 sequence (Q9Z2I9 54-463): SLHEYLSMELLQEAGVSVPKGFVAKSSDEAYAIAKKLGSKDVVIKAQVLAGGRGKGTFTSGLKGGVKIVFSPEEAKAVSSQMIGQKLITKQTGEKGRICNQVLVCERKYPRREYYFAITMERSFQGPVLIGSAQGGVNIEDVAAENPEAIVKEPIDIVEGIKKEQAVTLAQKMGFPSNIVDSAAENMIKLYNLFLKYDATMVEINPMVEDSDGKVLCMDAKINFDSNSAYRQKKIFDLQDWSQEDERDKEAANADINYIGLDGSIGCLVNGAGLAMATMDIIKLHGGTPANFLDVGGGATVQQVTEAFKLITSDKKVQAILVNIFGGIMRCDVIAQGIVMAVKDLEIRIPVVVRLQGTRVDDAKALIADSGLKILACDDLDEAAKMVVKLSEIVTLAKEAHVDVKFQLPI
As to conditions: co-precipitated protein Sucla2 (SUCB1_MOUSE). The method, boiled down:
as §1

Experiment [3] concerns the target T3, MLO-Y4 cell surface proteins (Mus musculus, UniProt Q6ZPE2).
T3 construct: endogenous in cells; host or cells: MLO-Y4
As to conditions: co-precipitated protein Sbf1 (MTMR5_MOUSE). The method, boiled down: as §1

The target in experiment [4] is T4, MLO-Y4 cell surface proteins (Mus musculus, UniProt Q66GT5).
T4 construct: endogenous in cells; host or cells: MLO-Y4
T4 sequence (Q66GT5 32-193): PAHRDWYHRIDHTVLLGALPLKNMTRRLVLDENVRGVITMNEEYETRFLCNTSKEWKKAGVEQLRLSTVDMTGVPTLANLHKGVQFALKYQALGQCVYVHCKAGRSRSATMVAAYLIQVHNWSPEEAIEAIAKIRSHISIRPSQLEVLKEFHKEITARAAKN
The following applies: co-precipitated protein Ptpmt1 (PTPM1_MOUSE). The method, boiled down: as §1

T3 sequence (Q6ZPE2 whole entry): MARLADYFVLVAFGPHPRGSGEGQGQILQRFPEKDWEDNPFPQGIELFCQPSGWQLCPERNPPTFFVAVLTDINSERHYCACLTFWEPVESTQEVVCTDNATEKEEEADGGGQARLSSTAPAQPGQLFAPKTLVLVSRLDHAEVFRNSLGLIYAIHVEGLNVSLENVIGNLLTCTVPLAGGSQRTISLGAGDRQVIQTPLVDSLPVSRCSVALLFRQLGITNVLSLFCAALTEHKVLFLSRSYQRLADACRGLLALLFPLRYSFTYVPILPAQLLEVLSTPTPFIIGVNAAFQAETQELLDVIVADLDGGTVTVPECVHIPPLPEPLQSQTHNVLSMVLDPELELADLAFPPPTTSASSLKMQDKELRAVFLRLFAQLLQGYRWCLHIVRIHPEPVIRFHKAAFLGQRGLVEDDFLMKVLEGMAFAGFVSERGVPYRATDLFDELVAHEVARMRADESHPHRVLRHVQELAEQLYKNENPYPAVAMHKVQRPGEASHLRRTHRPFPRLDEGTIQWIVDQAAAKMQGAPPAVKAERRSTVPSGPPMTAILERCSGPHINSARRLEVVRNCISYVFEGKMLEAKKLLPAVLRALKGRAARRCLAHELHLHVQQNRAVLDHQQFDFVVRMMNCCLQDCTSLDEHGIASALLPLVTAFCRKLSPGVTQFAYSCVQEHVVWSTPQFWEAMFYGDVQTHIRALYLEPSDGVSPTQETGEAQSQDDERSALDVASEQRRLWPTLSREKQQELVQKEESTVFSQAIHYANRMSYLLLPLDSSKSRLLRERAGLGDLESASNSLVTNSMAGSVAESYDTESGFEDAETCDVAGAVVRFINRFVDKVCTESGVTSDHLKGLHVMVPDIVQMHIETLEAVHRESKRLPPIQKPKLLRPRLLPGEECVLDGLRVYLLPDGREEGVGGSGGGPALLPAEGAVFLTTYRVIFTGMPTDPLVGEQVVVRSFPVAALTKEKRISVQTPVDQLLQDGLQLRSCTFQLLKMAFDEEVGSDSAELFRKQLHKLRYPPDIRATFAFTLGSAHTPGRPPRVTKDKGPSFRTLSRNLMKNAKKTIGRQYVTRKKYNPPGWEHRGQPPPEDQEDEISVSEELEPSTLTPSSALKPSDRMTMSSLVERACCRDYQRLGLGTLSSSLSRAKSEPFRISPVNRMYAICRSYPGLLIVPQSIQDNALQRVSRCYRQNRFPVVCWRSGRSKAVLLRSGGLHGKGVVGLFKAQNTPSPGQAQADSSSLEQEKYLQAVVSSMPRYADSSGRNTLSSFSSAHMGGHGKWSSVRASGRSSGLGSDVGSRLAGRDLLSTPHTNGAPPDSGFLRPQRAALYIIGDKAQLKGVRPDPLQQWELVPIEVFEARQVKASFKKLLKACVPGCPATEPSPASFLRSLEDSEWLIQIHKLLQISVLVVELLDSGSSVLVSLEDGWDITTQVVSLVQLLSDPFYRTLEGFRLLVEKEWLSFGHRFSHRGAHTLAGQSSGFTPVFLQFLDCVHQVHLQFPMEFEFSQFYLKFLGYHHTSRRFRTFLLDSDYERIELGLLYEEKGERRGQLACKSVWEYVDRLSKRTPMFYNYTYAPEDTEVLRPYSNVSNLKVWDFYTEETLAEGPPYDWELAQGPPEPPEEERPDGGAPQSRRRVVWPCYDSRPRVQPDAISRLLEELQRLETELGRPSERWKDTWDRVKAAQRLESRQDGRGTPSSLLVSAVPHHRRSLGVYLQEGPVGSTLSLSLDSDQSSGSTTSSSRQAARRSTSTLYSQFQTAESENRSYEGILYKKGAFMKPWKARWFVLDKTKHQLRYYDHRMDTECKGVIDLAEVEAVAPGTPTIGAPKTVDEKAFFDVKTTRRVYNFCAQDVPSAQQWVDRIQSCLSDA

B1: irisin: secreted cleaved form of FNDC5; recombinant human/mouse irisin with C-terminal his tag produced in HEK293 cells (protein)
chain: DSPSAPVNVTVRHLKANSAVVSWDVLEDEVVIGFAISQQKKDVRMLRFIQEVNTTTRSCALWDLEEDTEYIVHVQAISIQGQSPASEPVLFKTPREAEKMASKNKDEVTMKE
modifications: left off: small tags and cut ends
notes: secreted cleaved form of FNDC5; recombinant human/mouse irisin with C-terminal his tag produced in HEK293 cells
Turning to B1, the TMT signal-to-noise ratio in experiment [1] turned out to be 74.6472; in experiment [2] it was 19.8331; in experiment [3], 37.3228; in experiment [4], 51.6065. Moreover, the “irisin/adipsin TMT signal-to-noise ratio” value in experiment [1] amounted to 0.544; in experiment [2], 0.390; in experiment [3], 0.525; in experiment [4] it was 0.559.
